In US20220041738A1 (SAITAMA MEDICAL UNIVERSITY, published 2022):

Key:
Assay in all cases: immunofluorescence (legend of FIG. 4)
[1] = molecular target: T1, human ALK2-R375P on cells (human, UniProt Q04771 21-509)
T1 sequence: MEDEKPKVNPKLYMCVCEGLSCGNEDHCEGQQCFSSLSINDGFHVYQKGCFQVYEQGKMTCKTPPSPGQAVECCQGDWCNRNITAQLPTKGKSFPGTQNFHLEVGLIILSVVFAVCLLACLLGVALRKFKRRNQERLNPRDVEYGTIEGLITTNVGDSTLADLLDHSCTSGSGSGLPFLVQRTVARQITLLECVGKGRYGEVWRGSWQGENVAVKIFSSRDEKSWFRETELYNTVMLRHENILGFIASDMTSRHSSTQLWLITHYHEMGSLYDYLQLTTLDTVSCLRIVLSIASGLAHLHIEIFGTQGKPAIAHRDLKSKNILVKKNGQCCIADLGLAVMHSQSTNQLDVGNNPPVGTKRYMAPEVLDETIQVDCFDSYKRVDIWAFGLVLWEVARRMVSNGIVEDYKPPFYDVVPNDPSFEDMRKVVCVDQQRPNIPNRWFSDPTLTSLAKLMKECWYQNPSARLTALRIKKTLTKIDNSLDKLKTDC
Experimental: (§1) Mouse C2C12 cells were seeded into a 96-well plate (Greiner Bio-One) at 0.5×10³ cells/well, and cultured in 15% FBS-containing DMEM medium overnight under the conditions of 5% CO₂ at 37° C. On the following day, the C2C12 cells were transfected with each of a wild-type human ALK2 cDNA integrated into pcDEF3; pcDEF3/human ALK2-L196P, pcDEF3/human ALK2-P197_F198delinsL, pcDEF3/human ALK2-R202I, pcDEF3/human ALK2-R206H, pcDEF3/human ALK2-Q207E, pcDEF3/human ALK2-R258S, pcDEF3/human ALK2-G325A, pcDEF3/human ALK2-G328E, pcDEF3/human ALK2-G328R, pcDEF3/human ALK2-G328W, pcDEF3/human ALK2-G356D, and pcDEF3/human ALK2-R375P, which are variants identified in FOP; and pcDEF3 as a control, using Lipofectamine 2000 (Invitrogen), and further cultured overnight.
(§2) The C2C12 cells were fixed with 10% neutral formalin (Nacalai Tesque, Japan) for 20 minutes at room temperature, and then blocked with 10% goat normal serum for 30 minutes. After the blocking agent was removed, purified IgG diluted to 10 μg/mL with the blocking agent was added, and the cells were left for 1 hour at room temperature. After the cells were washed with PBS three times, Goat Alexa 594-conjugated anti-rat IgG (Invitrogen) diluted to 1:1000 with the blocking agent was added, and the cells were left for 1 hour at room temperature. After the cells were washed with PBS three times, the cells were fixed with 10% neutral formalin for 15 minutes at room temperature, and nuclear-stained with DAPI (LifeTechnologies). Fluorescent signals were analyzed with a fluorescence microscope BZ-9000 (Keyence).

[2] = molecular target: T2, human ALK2-R202I on cells (human, UniProt Q04771 21-509)
T2 sequence: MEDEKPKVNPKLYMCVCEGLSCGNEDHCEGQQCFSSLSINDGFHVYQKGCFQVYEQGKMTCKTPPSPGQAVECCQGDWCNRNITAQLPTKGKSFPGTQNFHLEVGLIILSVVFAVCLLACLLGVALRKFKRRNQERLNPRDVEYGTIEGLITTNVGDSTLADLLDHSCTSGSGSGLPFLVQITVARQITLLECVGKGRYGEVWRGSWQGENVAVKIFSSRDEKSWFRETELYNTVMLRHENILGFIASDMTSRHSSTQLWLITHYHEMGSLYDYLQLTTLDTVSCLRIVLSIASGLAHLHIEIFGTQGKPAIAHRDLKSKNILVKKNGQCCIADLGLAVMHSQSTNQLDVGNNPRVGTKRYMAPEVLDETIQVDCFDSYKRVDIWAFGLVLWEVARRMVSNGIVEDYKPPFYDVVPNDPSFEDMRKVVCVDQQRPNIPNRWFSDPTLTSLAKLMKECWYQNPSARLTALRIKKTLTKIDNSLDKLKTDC
Experimental: as §1, §2

[3] = molecular target: T3, human ALK2-G328R on cells (human, UniProt Q04771 21-509)
T3 sequence: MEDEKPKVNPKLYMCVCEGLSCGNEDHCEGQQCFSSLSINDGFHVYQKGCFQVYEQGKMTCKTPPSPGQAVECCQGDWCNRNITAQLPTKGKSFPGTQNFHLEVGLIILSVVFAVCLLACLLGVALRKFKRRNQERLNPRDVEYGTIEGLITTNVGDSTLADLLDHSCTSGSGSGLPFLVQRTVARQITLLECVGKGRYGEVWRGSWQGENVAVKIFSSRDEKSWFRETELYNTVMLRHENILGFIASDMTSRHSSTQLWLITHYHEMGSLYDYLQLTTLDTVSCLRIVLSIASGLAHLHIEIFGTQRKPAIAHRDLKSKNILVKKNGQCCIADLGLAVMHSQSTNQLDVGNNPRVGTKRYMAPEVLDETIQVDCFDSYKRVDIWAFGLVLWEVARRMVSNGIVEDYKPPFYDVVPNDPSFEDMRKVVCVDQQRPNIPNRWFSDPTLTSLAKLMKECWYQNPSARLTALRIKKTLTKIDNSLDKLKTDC
Experimental: as §1, §2

[4] = molecular target: T4, human ALK2-R258S on cells (human, UniProt Q04771 21-509)
T4 sequence: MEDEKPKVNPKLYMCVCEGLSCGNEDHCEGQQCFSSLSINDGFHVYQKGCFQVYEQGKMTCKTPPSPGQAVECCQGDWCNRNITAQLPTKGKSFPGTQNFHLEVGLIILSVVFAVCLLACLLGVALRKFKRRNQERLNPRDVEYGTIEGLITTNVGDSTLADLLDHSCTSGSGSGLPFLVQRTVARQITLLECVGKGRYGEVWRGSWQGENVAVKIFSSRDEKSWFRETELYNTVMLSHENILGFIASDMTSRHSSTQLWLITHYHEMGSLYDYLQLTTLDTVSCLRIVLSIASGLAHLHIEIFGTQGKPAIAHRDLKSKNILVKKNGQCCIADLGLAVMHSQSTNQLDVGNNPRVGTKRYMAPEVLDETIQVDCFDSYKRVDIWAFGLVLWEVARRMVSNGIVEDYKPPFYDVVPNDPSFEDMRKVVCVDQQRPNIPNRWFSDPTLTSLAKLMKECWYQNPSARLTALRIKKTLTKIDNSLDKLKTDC
Experimental: as §1, §2

Measured: binding result

B1: rat anti-ALK2 monoclonal antibody A2-11E (antibody, V domains shown)
VH: EVQLVETGGGLVQPGRSLKLSCVASGFTFSNYYMYWIRQAPGKGLEWISSINTDGGSTYYPDSVKGRFAISRDNAENTVYLQMNSLRSEDTATYYCAKSTPNIPLAYWGQGTLVTVSS
VL: DIQMTQSPSLLSASVGDRVTLSCKASQNIYKYLNWFQQKLGEAPKLLIYYSNSLQTGIPSRFSGSGSGTDFTLTISSLQPEDVAIYFCFQYSSGPTFGPGTKLELKR
notes: Rat monoclonal IgG from a hybridoma; also called 11E2
binds: all assays above

B2: rat anti-ALK2 monoclonal antibody A2-15A (antibody, V domains shown)
VH: EVQLVESGGGLVQPGRSLKLSCAASGFTFSHYYMAWVRQAPTKGLEWVASITNSGGSINYRDSVKGRFTISRDNAKSTLYLQMDSLRSEDTATYYCTREGGENYGGYPPFAYWGQGTLVTVSS
VL: DIVLTQSPALAVSLGQRATISCRANQGVSLSRYNLMHWYQQKPGQKPKLLIYRSSNLASGIPARFSGSGSGTDFTLTINPVQADDIATYYCQQSRESPFTFGAGTKLELKR
notes: Rat monoclonal IgG from a hybridoma; also called 15A6
binds: all assays above
